Article PMC9923923 (2023)

Tests used:
TLR4 = TLR4 (Homo sapiens, UniProt O00206); assay: SPR
TLR4/MD2 complex = TLR4/MD2 complex (Homo sapiens, UniProt O00206); assay: SPR
Sequence of TLR4/MD2 complex (O00206 24-839, chain 1 of 2): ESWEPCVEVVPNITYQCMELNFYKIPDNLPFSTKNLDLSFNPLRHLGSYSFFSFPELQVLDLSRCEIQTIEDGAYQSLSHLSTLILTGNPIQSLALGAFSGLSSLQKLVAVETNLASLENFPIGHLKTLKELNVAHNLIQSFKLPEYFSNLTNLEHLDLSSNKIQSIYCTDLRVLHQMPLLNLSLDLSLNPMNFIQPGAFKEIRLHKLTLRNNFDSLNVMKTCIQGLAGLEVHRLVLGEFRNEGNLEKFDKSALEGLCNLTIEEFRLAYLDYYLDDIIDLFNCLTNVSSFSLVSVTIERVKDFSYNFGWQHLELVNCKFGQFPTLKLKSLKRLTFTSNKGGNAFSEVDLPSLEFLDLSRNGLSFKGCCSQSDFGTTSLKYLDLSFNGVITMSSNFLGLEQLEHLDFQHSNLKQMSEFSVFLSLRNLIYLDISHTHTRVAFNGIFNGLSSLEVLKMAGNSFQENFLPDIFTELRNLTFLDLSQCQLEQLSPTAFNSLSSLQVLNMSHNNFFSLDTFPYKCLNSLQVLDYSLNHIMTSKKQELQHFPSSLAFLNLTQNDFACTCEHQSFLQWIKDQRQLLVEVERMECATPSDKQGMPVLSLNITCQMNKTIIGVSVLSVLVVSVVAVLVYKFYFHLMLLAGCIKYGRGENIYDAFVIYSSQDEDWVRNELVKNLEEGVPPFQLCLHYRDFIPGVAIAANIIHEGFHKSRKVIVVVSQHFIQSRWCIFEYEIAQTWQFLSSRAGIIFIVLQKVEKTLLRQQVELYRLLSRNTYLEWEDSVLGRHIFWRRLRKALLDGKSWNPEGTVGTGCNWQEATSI
Sequence of TLR4/MD2 complex (chain, as listed by the source, chain 2 of 2): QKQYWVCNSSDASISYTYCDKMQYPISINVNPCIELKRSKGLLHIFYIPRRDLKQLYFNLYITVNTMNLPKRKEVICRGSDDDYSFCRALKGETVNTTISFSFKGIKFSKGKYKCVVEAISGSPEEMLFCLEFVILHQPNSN

Sequence of TLR4 (O00206 24-839): as the sequence (O00206 24-839, chain 1 of 2) above

| Binder | Kd (TLR4) [nM] | Kd (TLR4/MD2 complex) [nM] |
| --- | --- | --- |
| eCIRP (protein, 5 nM PS-OMe miR130 (value in text)) MASDEGKLFVGGLSFDTNEQALEQVFSKYGQISEVVVVKDRETQRSRGFGFVTFENIDDAKDAMMAMNGKSVDGRQIRVDQAGKSSDNRSRGYRGGSAGGRGFFRGGRSRGRGFSRGGGDRGYGGGRFESRSGGYGGSRDYYASRSQGGSYGYRSSGGSYRDSYDSYATHNE | 612 |  |
| eCIRP (protein, 5 nM PS-OMe miR130 (value in legend)) MASDEGKLFVGGLSFDTNEQALEQVFSKYGQISEVVVVKDRETQRSRGFGFVTFENIDDAKDAMMAMNGKSVDGRQIRVDQAGKSSDNRSRGYRGGSAGGRGFFRGGRSRGRGFSRGGGDRGYGGGRFESRSGGYGGSRDYYASRSQGGSYGYRSSGGSYRDSYDSYATHNE | 139 |  |
| eCIRP (protein, 5 nM PS-OMe miR130) MASDEGKLFVGGLSFDTNEQALEQVFSKYGQISEVVVVKDRETQRSRGFGFVTFENIDDAKDAMMAMNGKSVDGRQIRVDQAGKSSDNRSRGYRGGSAGGRGFFRGGRSRGRGFSRGGGDRGYGGGRFESRSGGYGGSRDYYASRSQGGSYGYRSSGGSYRDSYDSYATHNE |  | 113 |
| eCIRP (protein) MASDEGKLFVGGLSFDTNEQALEQVFSKYGQISEVVVVKDRETQRSRGFGFVTFENIDDAKDAMMAMNGKSVDGRQIRVDQAGKSSDNRSRGYRGGSAGGRGFFRGGRSRGRGFSRGGGDRGYGGGRFESRSGGYGGSRDYYASRSQGGSYGYRSSGGSYRDSYDSYATHNE | 69.7 | 20 |
